The values below come from paper PMC3958868, “The Proteasome Activator PA28γ, a Negative Regulator of p53, Is Transcriptionally Up-Regulated by p53”.

The chains are these.
B1: RE2 mutant (dsDNA)
DNA 1: GTGTCGCAAGAGGTATAGTCTCATGCTT
DNA 2: AAGCATGAGACTATACCTCTTGCGACAC
B2: RE1 wild-type (dsDNA)
DNA 1: TTACATGTTGAAATACTTGTAT
DNA 2: ATACAAGTATTTCAACATGTAA
B3: RE1 mutant (dsDNA)
DNA 1: TTATCGCTTGAAATACTTGTAT
DNA 2: ATACAAGTATTTCAAGCGATAA
B4: RE2 wild-type (dsDNA)
DNA 1: GTGCATGAAGAGGTATAGTCTCATGCTT
DNA 2: AAGCATGAGACTATACCTCTTCATGCAC

The data set deals with p53 (UniProt P04637 1-393). Put plainly: biotinylated DNA pull-down, western blot; 10 mM Tris-HCl pH 8.0, 40 mM KCl, 1 mM DTT, 6% glycerol, 0.05% NP-40; overnight at 4 °C; 20 µg p53, 1 µg biotinylated oligo; beads washed with Tris-EDTA (100 mM NaCl), binding buffer, PBS. The settings on record: protein: recombinant; chain copies: 4; label: biotin.
Chain of p53 (P04637 whole entry): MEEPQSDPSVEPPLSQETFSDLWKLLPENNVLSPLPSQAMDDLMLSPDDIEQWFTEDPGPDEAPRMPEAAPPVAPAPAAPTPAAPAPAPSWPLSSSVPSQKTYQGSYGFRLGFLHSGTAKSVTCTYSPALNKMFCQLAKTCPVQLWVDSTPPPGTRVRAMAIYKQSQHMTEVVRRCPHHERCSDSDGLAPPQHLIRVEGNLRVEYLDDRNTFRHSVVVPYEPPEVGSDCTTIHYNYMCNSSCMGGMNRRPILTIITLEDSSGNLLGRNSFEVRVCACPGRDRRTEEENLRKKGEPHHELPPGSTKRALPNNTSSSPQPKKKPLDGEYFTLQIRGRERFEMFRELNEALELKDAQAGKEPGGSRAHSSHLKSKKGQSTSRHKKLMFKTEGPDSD
Regarding B1, the binding result is on record as “no binding”.
The entry for B2 is “binds”.
The entry for B3 is “no binding”; for B4 it is “binds”.
